We go through one molecule from paper PMC4028237, “GmFT2a and GmFT5a Redundantly and Differentially Regulate Flowering through Interaction with and Upregulation of the bZIP Transcription Factor GmFDL19 in Soybean”.

This series has as its target T1, GmFDL19 (Glycine max, UniProt I1N8K2 1-320).
T1 sequence: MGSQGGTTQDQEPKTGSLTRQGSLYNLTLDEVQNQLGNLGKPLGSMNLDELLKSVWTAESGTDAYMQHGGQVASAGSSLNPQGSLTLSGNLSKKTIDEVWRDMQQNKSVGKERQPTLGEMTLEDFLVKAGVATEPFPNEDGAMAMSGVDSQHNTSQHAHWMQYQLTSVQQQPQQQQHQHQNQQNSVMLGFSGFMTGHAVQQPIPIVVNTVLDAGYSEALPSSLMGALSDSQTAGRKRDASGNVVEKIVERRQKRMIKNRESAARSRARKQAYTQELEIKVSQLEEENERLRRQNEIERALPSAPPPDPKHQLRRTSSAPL
The experiment in a line: EMSA; Invitrogen EMSA kit E33075, 6% native TBE polyacrylamide gel, 200 V 45 min, SYBR Green stain; binding buffer, salt, pH and temperature not stated. Conditions: protein: recombinant; tags: His (pET29b, NdeI/SalI); chain copies: 2; label: none (SYBR Green stain); blunt. A general note: Mobility shift assays separate free from complexed probe on a gel.

B1: GmAP1aP-1280 CArG box (dsDNA)
DNA 1: GCAACCATCCATCCAAAAATAAGGCAAAAAAAATAAACAT
DNA 2: ATGTTTATTTTTTTTGCCTTATTTTTGGATGGATGGTTGC
Turning to B1, the binding result was “no binding”.
